Source: US20200209238A1, “OPTIMIZING DIAGNOSTICS FOR GALACTOFURANOSE CONTAINING ANTIGENS” (The Johns Hopkins University, priority 2017, published 2020)

B1: mAb476: galF-specific monoclonal antibody, VH domain of SEQ ID NO:9 and VL domain of SEQ ID NO:10 (antibody, V domains shown)
VH: EVQLEESGGGLVQPGGSLRLSCATSGFTFSDFYMEWVRQTPGERLEWIAASRNKANDYTAEYSASVKGRFTVFRDTSQNILYLQMNALRAEDTAAYYCARDADYGKTFSWYFDVWGAGTTVTVSS
VL: DIVMTQDELSNPVTSGESVHISCRSSKSLLYKDGKTYLNWFLQRPGQSPQLLIYLMSTRASGVSDRFSGSGSGTDFTLEISRVKAEDVGVYYCQQLVEYPLTFGAGTKLELK
B2: rINTL-1: Recombinant human IntL-1 (intelectin-1), FLAG-tagged in the cell binding test (protein)
chain: TDEANTYFKEWTCSSSPSLPRSCKEIKDECPSAFDGLYFLRTENGVIYQTFCDMTSGGGGWTLVASVHENDMRGKCTVGDRWSSQQGSKAVYPEGDGNWANYNTFGSAEAATSDDYKNPGYYDIQAKDLGIWHVPNKSPMQHWRNSSLLRYRTDTGFLQTLGHNLFGIYQKYPVKYGEGKCWTDNGPVIPVVYDFGDAQKTASYYSPYGQREFTAGFVQFRVFNNERAANALCAGMRVTGCNTEHHCIGGGGYFPEASPQQCGDFSGFDWSGYGTHVGYSSSREITEAAVLLFYR

Tests used:
[1] = Immunoprecipitation of urine with mAb476-coated dynabeads; assay type: binding, human; details: normal urine
Experimental: Studies were performed to identify the proteins that are bound by mAb476 after immunoprecipitation, using mass spectrophotometry. To enrich sample detection of moieties specifically binding to mAb476, urines were incubated with superparamagnetic dynabeads coated with mAb476 and a mouse control antibody. mAb476 reactive material was eluted with 50 mM glycine (pH 2.5-3.0). […] Reactivity to mAb476 eluates was confirmed by sandwich ELISA. Eluates were then run on SDS-PAGE gels to check for band patterns, and in-solution mass spectrometry analysis was performed. Analysis detected the microbial antigen CelA/Aspf7 (a galF-containing 0-glycan).

[2] = tested on: Aspergillus fumigatus conidia and hyphae; assay: rIntL-1 binding to conidia and hyphae, fluorescence microscopy
Experimental: Conidia from Aspergillus fumigatus were counted and adjusted to 10^6/mL in Sabouraud's Dextrose broth, and grown for 6 hours at 37° C. to germinate (forming hyphae). The collection of swollen, germinating conidia and growing hyphae from already-germinated conidia were killed with heat at 90° C. for 1 h. The fungal material (killed conidia and hyphae) was pelleted by centrifugation, resuspended in IntL-ELISA blocking buffer, and incubated with 10^−7 M rIntL-1 (FLAG-tagged) in presence of 10 μg/mL of either MAb476 or an irrelevant, isotype control antibody mouse IgM for 2 h at 30° C. Following washes with IntL-ELISA buffer, the material was resuspended in IntL-ELISA blocking buffer and incubated with a 1:50 diluted anti-FLAG tag antibody conjugated to the red fluorochrome phycoerythrin (PE). Again, after washes, the stained material was resuspended in IntL-ELISA blocking buffer, transferred to chamber slides and observed under a fluorescent microscope. The inventors performed experiments wherein Aspergillus ethanol precipitate and whole cells (conidia and hyphae) were exposed to rIntL-1 and then a sandwich assay using Rabbit polyclonal antibodies to INTL-1 and goat anti-rabbit antibodies with a fluorescent ligand were performed in buffer comprising 10 mM CaCl2). […] Thus, IntL-1 could be the competitive agent which is interfering with the inventors' antibodies to galF.

[3] = Western blot of urine with mAb476; assay type: binding, human
Experimental: Studies were performed using urine collected from control patients (pooled) and patient who had Aspergillus infection (VU7). The samples were run in a reducing SDS polyacrylamide gel electrophoresis (PAGE), and the resolved proteins were transferred to a nylon membrane for performing a Western Blot. Some samples used concentrated urine (denoted by “c”) using an Amicon concentrator or were pretreated by desalting columns (denoted by “ds”).

[4] = tested on: Aspergillus ethanol precipitate (EP); assay: rIntL-1 binding to Aspergillus ethanol precipitate, ELISA; details: buffer with 10 mM CaCl2
Experimental: Wells of a microtiter plate were coated with 10 μg/ml of EP antigen and blocked with a blocking buffer containing 0.1% BSA in IntL-ELISA buffer (20 mM HEPES pH7.4; 150 mM NaCl; 10 mM CaCl2); 0.1% Tween-20. Ref: Wesener et al. (2015) Nature Structural & Molecular Biology, 22(8):603). Recombinant human IntL-1 (rintL-1) was serially diluted tenfold in blocking buffer starting at 10^−6 M, and incubated on the EP-coated plate for 2 h at 30° C., followed by washes with IntL-ELISA buffer. The bound IntL was detected by an anti-omentin Rabbit IgG ab (Millipore) diluted 1:1000 in blocking buffer and incubated at 30° C. for 2 h. Wells were again washed and incubated with a goat anti-Rabbit IgG-AP at 1:1000 for 1 h at 30° C. Following another wash, the color was developed by AP substrate for 30 minutes at 37° C.
Conidia from Aspergillus fumigatus were counted and adjusted to 10^6/mL in Sabouraud's Dextrose broth, and grown for 6 hours at 37° C. to germinate (forming hyphae). The collection of swollen, germinating conidia and growing hyphae from already-germinated conidia were killed with heat at 90° C. for 1 h. The fungal material (killed conidia and hyphae) was pelleted by centrifugation, resuspended in IntL-ELISA blocking buffer, and incubated with 10^−7 M rIntL-1 (FLAG-tagged) in presence of 10 μg/mL of either MAb476 or an irrelevant, isotype control antibody mouse IgM for 2 h at 30° C. […]

Molecule | binding in immunoprecipitation [1] | effect on cellular rINTL-1 binding (galF recognition) ([2]; 10 μg/mL antibody with 10^−7 M rIntL-1) | reactive bands in Western blot ([3]; healthy human pooled urine) | molecular weight of reactive bands in Western blot ([3]; urine from patients with aspergillosis) [kDa] | binding to whole cells (conidia & hyphae) ([2]; 10^−7 M FLAG-tagged rIntL-1, heat-killed Af293 conidia and hyphae) | binding to Aspergillus ethanol precipitate [4]
B1 | No mAb476 binding occurred | GalF recognition is reduced | no reactive bands | 26 to 35 |  | 
B2 |  |  |  |  | binds to whole cells | bound Aspergillus ethanol precipitate with high affinity
